How the values were obtained:
Experiment in all cases: ForteBio Octet (BLI)
20817 = target: 20817
20812 = target: 20812
20814 = target: 20814
20809 = target: 20809
20807 = target: 20807

| Kd 20817 [nM] | Kd 20812 [nM] | Kd 20814 [nM] | Kd 20809 [nM] | Kd 20807 [nM] | Binder |
| --- | --- | --- | --- | --- | --- |
| 0.283 | 0.312 | 0.31 | 0.253 | 0.25 | Cyno (Fc fusion) LFTVTVPKELYIIEHGSNATLECNFDTGSHVNLGAITASLQKVENDTSPHRERATLLEEQLSLGKALFHIPQVQVRDEGQYQCIIIYGVAWDYKYLTLKVKASYRKINTHILKVPETDEVELTCQATGYPLAEVSWPNISVPANTSHSRTPEGLYQVTSVLRLKPHPGRNFSCVFWNAQVRELTLASIDLQSQIEPRTHP |
| 0.347 |  | 0.325 | 1.53 | 0.58 | Human (ligand) LFTVTVPKELYIIEHGSNVTLECNFDTGSHVNLGAITASLQKVENDTSPHRERATLLEEQLPLGKASFHIPQVQVRDEGQYQCIIIYGVAWDYKYLTLKVKASYRKINTHILKVPETDEVELTCQATGYPLAEVSWPNVSVPANTSHSRTPEGLYQVTSVLRLKPPPGRNFSCVFWNTHVRELTLASIDLQSQMEPRTHPT |
